How the values were obtained:
Assay type in all cases: biochemical
[1] = HTP-analysis of yeast culture supernatants, no challenge (MUGal hydrolysis); settings: activity of the variant/activity of Rd2BB (SEQ ID NO: 10), yeast culture supernatant
Outline: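 GLA variants expressed in yeast INVSc1, secreted into SD-Ura broth over 66-84 h at 30° C; clarified supernatants tested without challenge. Supernatant mixed with McIlvaine buffer pH 4.8 and 2 mM MUGal (citrate/KCl, pH 4.6), 37° C for 30-180 min, carbonate-quenched, fluorescence Ex 355/Em 448 nm.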

[2] = HTP-analysis of supernatants pretreated with acid (MUGal hydrolysis); settings: challenge at pH 4.2; activity of the variant/activity of Rd2BB (SEQ ID NO: 10); yeast culture supernatant
Outline: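 Fluorescence of MUGal hydrolysis (Ex. 355 nm, Em. 448 nm) is read after sodium carbonate quench. The enzyme source is INVSc1 yeast culture supernatant, first exposed to pH 3.3-4.3 McIlvaine buffer at 37° C. for 1-3 h, then reacted at pH 4.8 for 30-180 minutes.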

[3] = HTP-analysis of supernatants pretreated with base (MUGal hydrolysis); settings: challenge at pH 7.6; activity of the variant/activity of Rd2BB (SEQ ID NO: 10); yeast culture supernatant
Outline: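 Fluorescence of released 4-MU (Ex 355 nm, Em 448 nm) after carbonate quench reports MUGal hydrolysis by GLA variants secreted from INVSc1 yeast. Before the acidic (pH 4.3-4.8) 30-180 min reaction at 37° C, supernatants had been pre-incubated at pH 7.0-9.7 for 1-18 h at 37° C.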

[4] = HTP-analysis of supernatants pretreated with bovine serum (MUGal hydrolysis); settings: activity of the variant/activity of Rd2BB (SEQ ID NO: 10), yeast culture supernatant
Description: Yeast (INVSc1) cells transformed with vectors expressing GLA and GLA variants using the lithium acetate method were selected on SD-Ura agar plates. After 72 h incubation at 30° C. colonies were placed into the wells of Axygen® 1.1 ml 96-well deep well plates filled with 200 μl/well SD-Ura broth (2 g/L SD-Ura, 6.8 g/L yeast nitrogen base without amino acids [Sigma Aldrich]), 3.06 g/L sodium dihydrogen phosphate, 0.804 g/L disodium hydrogen phosphate, pH 6.0 supplemented with 6% glucose. The cells were allowed to grow for 20-24 hours in a Kuhner shaker (250 rpm, 30° C., and 85% relative humidity). Overnight culture samples (20 μL) were transferred into Corning Costar® 96-well deep plates filled with 380 µL of SD-ura broth supplemented with 2% glucose. The plates were incubated for 66-84 h in a Kuhner shaker (250 rpm, 30° C., and 85% relative humidity). The cells were then pelleted (4000 rpm×20 min), and the supernatants isolated and stored at 4° C. prior to analysis.
GLA variants were challenged with bovine serum to simulate the conditions the variants encounter following infusion into a patient. First, 20 μL of yeast culture supernatant and 80 μL, of bovine serum were added to the wells of a 96-well round bottom plate. The plates were sealed and incubated at 37° C. for 1 h. For the assay, 50 μL of serum-challenged sample was mixed with 25 μL, of 1 M citrate buffer pH 4.3 and 25 μL, of 4 mM MUGal in McIlvaine buffer pH 4.8. The reactions were mixed briefly and incubated at 37° C. for 180 minutes, prior to quenching with 100 μL, of 1 M sodium carbonate. Hydrolysis was analyzed using a SpectraMax® M2 microplate reader monitoring fluorescence (Ex. 355 nm, Em. 448 nm).

Row | Molecule | Relative Activity of GLA Variants After No Challenge (NC) [1] | Relative Activity of GLA Variants After Challenge at pH 4.2 [2] | Relative Activity of GLA Variants After Challenge at pH 7.6 [3] | Relative Activity of GLA Variants After Challenge with Serum [4]
1 | 258 (protein, Synthetic Polypeptide sequence of Variant No. 258 of mature Human GLA) LDNGLARTPTMGWLHWERFMCNLDCQEEPDSCISEKLFMEMAELMVSEGWKDAGYEYLCIDDCWMAPQRDSEGRLQADPQRFPHGIRQLANYVHSKGLKFGIYADVGNKTCAGFPGSFGYYDIDAQTFADWGVDLLKFDGCYCDSLENLADGYKHMSLALNRTGRSIVYSCEWPLYMWPFQKPNYTEIRQYCNHWRNFADIDDSWASVKSILDWTSFNQETIVDVAGPGGWNDPDMLVIGNFGLSWNQQVTQMALWAIMAAPLFMSNDLRHISPQAKALLQDKDVIAINQDPLGKQGYQLRKGDNFEVWERPLSGLAWAVAIINRQEIGGPRSYTIAVASLGDGVACNPACFITQLLPVKRKLGFYEWTSRLRSHVNPTGTVLLQLENTMQMSLKDLL | +++ (+++ = >2.5 relative activity over Rd2BB (SEQ ID NO: 10)) | ++ (++ = 1.5 to 2.5 relative activity over Rd2BB (SEQ ID NO: 10)) | +++ (+++ = >2.5 relative activity over Rd2BB (SEQ ID NO: 10)) | ++ (++ = 1.5 to 2.5 relative activity over Rd2BB (SEQ ID NO: 10))
2 | 259 (protein, Synthetic Polypeptide sequence of Variant No. 259 of mature Human GLA) LDNGLARTPTMGWLHWERFMCNLDCQEEPDSCISEKLFMEMAELMVSEGWKDAGYEYLCIDDCWMAPQRDSEGRLQADPQRFPHGIRQLANYVHSKGLKFGIYADVGNKTCAGFPGSFGYYDIDAQTFADWGVDLLKFDGCYCDSLENLADGYKHMSLALNRTGRSIVYSCEWPLYMWPFQKPNYTEIRQYCNHWRNFADIDDSWASIKSILDWTSFNQERIVDVAGPGGWNDPDMLVIGNFGLSWNQQVTQMALWAIMAAPLFMSNDLRHISPQAKALLQDKDVIAINQDPLGKQGYQLRQGDNFEVWERPLSGLAWAVAVINRQEIGGPRSYTIAVASLGKGVACNPACFITQLLPVKRKLGLYEWTSRLKSHVNPTGTVLLQLENTMQMSLKDLL | + (+ = 0.5 to 1.5 relative activity over Rd2BB (SEQ ID NO: 10)) | + (+ = 0.5 to 1.5 relative activity over Rd2BB (SEQ ID NO: 10)) | + (+ = 0.5 to 1.5 relative activity over Rd2BB (SEQ ID NO: 10)) | + (+ = 0.5 to 1.5 relative activity over Rd2BB (SEQ ID NO: 10))
3 | 260 (protein, Synthetic Polypeptide sequence of Variant No. 260 of mature Human GLA) LDNGLARTPTMGWLHWERFMCNLDCQEEPDSCISEKLFMEMAELMVSEGWKDAGYEYLCIDDCWMAPQRDSEGRLQADPQRFPHGIRQLANYVHSKGLKFGIYADVGNKTCAGFPGSFGYYDIDAQTFADWGVDLLKFDGCYCDSLENLADGYKHMSLALNRTGRSIVYSCEWPLYMWPFQKPNYTEIRQYCNHWRNFADIDDSWASIKSILDWTSFNQERIVDVAGPGGWNDPDMLVIGNFGLSWDQQVTQMALWAIMAAPLFMSNDLRHISPQAKALLQDKDVIAINQDPLGKQGYQLRQGDNFEVWERPLSGLAWAVAMINRQEIGGPRSYTIAVASLGKGVACNPACFITQLLPVKRKLGLYEWTSRLKSHVNPTGTVLLQLENTMQMSLKDLL | + (+ = 0.5 to 1.5 relative activity over Rd2BB (SEQ ID NO: 10)) | + (+ = 0.5 to 1.5 relative activity over Rd2BB (SEQ ID NO: 10)) | + (+ = 0.5 to 1.5 relative activity over Rd2BB (SEQ ID NO: 10)) | + (+ = 0.5 to 1.5 relative activity over Rd2BB (SEQ ID NO: 10))
4 | 261 (protein, Synthetic Polypeptide sequence of Variant No. 261 of mature Human GLA) LDNGLARTPTMGWLHWERFMCNLDCQEEPDSCISEKLFMEMAELMVSEGWKDAGYEYLCIDDCWMAPQRDSEGRLQADPQRFPHGIRQLANYVHSKGLKFGIYADVGNKTCAGFPGSFGYYDIDAQTFADWGVDLLKFDGCYCDSLENLADGYKHMSLALNRTGRSIVYSCEWPLYMWPFQKPNYTEIRQYCNHWRNFADIDDSWASIKSILDWTSFNQEKIVDVAGPGGWNDPDMLVIGNFGLSWDQQVTQMALWAIMAAPLFMSNDLRHISPQAKALLQDKDVIAINQDPLGKQGYQLRQGDNFEVWERPLSGLAWAVAVINRQEIGGPRSYTIAVASLGDGVACNPACFITQLLPVKRKLGFYEWTSRLRSHVNPTGTVLLQLENTMQMSLKDLL | ++ (++ = 1.5 to 2.5 relative activity over Rd2BB (SEQ ID NO: 10)) | ++ (++ = 1.5 to 2.5 relative activity over Rd2BB (SEQ ID NO: 10)) | ++ (++ = 1.5 to 2.5 relative activity over Rd2BB (SEQ ID NO: 10)) | + (+ = 0.5 to 1.5 relative activity over Rd2BB (SEQ ID NO: 10))
5 | 262 (protein, Synthetic Polypeptide sequence of Variant No. 262 of mature Human GLA) LDNGLARTPTMGWLHWERFMCNLDCQEEPDSCISEKLFMEMAELMVSEGWKDAGYEYLCIDDCWMAPQRDSEGRLQADPQRFPHGIRQLANYVHSKGLKFGIYADVGNKTCAGFPGSFGYYDIDAQTFADWGVDLLKFDGCYCDSLENLADGYKHMSLALNRTGRSIVYSCEWPLYMWPFQKPNYTEIRQYCNHWRNFADIDDSWASIKSILDWTSFNQEKIVDVAGPGGWNDPDMLVIGNFGLSWDQQVTQMALWAIMAAPLFMSNDLRHISPQAKALLQDKDVIAINQDPLGKQGYQLRKGDNFEVWERPLSGLAWAVAVINRQEIGGPRSYTIAVASLGKGVACNPACFITQLLPVKRKLGLYEWTSRLKSHVNPTGTVLLQLENTMQMSLKDLL | ++ (++ = 1.5 to 2.5 relative activity over Rd2BB (SEQ ID NO: 10)) | +++ (+++ = >2.5 relative activity over Rd2BB (SEQ ID NO: 10)) | +++ (+++ = >2.5 relative activity over Rd2BB (SEQ ID NO: 10)) | +++ (+++ = >2.5 relative activity over Rd2BB (SEQ ID NO: 10))
6 | 263 (protein, Synthetic Polypeptide sequence of Variant No. 263 of mature Human GLA) LDNGLARTPTMGWLHWERFMCNLDCQEEPDSCISEKLFMEMAELMVSEGWKDAGYEYLCIDDCWMAPQRDSEGRLQADPQRFPHGIRQLANYVHSKGLKFGIYADVGNKTCAGFPGSFGYYDIDAQTFADWGVDLLKFDGCYCDSLENLADGYKHMSLALNRTGRSIVYSCEWPLYMWPFQKPNYTEIRQYCNHWRNFADIDDSWASIKSILDWTSFNQEKIVDVAGPGGWNDPDMLVIGNFGLSWDQQVTQMALWAIMAAPLFMSNDLRHISPQAKALLQDKDVIAINQDPLGKQGYQLRKGDNFEVWERPLSGLAWAVAVINRQEIGGPRSYTIAVASLGKGVACNPACFITQLLPVKRKLGFYEWTSRLRSHVNPTGTVLLQLENTMQMSLKDLL | + (+ = 0.5 to 1.5 relative activity over Rd2BB (SEQ ID NO: 10)) | ++ (++ = 1.5 to 2.5 relative activity over Rd2BB (SEQ ID NO: 10)) | ++ (++ = 1.5 to 2.5 relative activity over Rd2BB (SEQ ID NO: 10)) | +++ (+++ = >2.5 relative activity over Rd2BB (SEQ ID NO: 10))

Source: patent US11278600B2, “Human alpha-galactosidase variants” (Codexis, Inc., priority 2014, dated 2022)
